Experimental data from PMC7949122 (The Journal of Biological Chemistry, 2021).
“Also recorded” adds a separate entry of the source. Non-standard residues stand in square brackets, D forms with d. No end group written: not given here. Hyp = O=C(O)[C@@H]1C[C@@H](O)CN1; 2Thi = N[C@@H](Cc1cccs1)C(=O)O; NChg = not defined here

What was measured:
[1] = tested on: endogenous B1R in HeLa cells (ERK1/2 phosphorylation); assay: ERK1/2 phosphorylation (western blot) after B1R stimulation, AltB2RFlag versus Mock stable HeLa cells; format: cell-based, human; conditions: 1 μM NG29, n = 3
B1R = tested on: B1R; parameters: method as in PMID 15734727; conditions: cited from earlier work
[2] = biological target: T1, human B2R on transfected HEK293A cells (human, UniProt P30411 1-391); assay: B2R; displacement of [3H]-BK
T1 chain: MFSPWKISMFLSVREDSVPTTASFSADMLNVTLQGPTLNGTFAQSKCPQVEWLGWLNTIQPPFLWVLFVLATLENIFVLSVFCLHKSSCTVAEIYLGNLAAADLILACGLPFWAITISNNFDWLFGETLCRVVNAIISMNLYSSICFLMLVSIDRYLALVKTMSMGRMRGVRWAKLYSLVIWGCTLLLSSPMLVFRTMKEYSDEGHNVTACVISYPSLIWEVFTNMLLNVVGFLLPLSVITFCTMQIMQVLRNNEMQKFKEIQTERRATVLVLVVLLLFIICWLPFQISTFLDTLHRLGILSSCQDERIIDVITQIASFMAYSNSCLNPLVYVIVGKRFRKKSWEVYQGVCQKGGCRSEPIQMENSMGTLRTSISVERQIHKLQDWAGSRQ

[3] = biological target: T1, human B2R on transfected HEK293A cells; assay: B2R(Ø); displacement of [3H]-BK

Molecule	phosphorylated ERK1/2 after B1R stimulation, AltB2RFlag versus mock HeLa cells [1]	kinin receptor selectivity (B1R)	IC50 [2] [nM]	IC50 [3] [nM]
SarLys[Dphe^8]desArg^9-BK [NG29]	not significant; also recorded: did not observe any difference in the increased levels of phosphorylated ERK1/2 between mock and AltB2R^Flag cells			
desArg^9-BK: carboxy-terminally truncated peptide metabolite (RPPGFSPF; Bradykinin; UniProt P01042 381-388, looked up, fragment)		selectively bind to the other type of kinin receptor, the inducible B1R		
desArg^10-KD: carboxy-terminally truncated peptide metabolite (KRPPGFSPF; Lysyl-bradykinin; UniProt P01042 380-388, looked up, fragment)		selectively bind to the other type of kinin receptor, the inducible B1R		
RP[Hyp]G[2Thi]SP[Tyr(4-Me)]R (also: ΨCH2NH reduced bond between residues 8 and 9) [RMP-7 ([Hyp^3,Thi^5,(4-Me)Tyr^8(ΨCH2NH)Arg^9]-BK)]			17.7	18
RP[Hyp]G[2Thi]S[NChg][2Thi]R (reading uncertain; also: printed as [Hyp^3,Thi^5,^NChg^7,Thi^8]-BK) [NG291 ([Hyp^3,Thi^5,^NChg^7,Thi^8]-BK)]			6.21	4.38
